Data: US20130017251A1 (J DAVID GLADSTONE INSTITUTES, published 2013)

Experiments:
[1] = biological target: T1, N-terminal 22-kDa fragment of apoE3 (aa 1-191) (human, UniProt P02649 19-209); assay: ELISA on coated fragment
T1 construct: Range 1-191 is in apoE (299-residue) numbering
Experimental: (§1) ApoE ELISA. […] Wells were washed several times with wash buffer (PBS containing 0.1% bovine serum albumin (BSA)) and blocked for 1 h with 4% BSA in PBS. All incubations were performed at room temperature. […] Secondary antibodies against goat or mouse IgG labeled with horse radish peroxidase (HRP) diluted in blocking buffer were added to the wells after several washes and incubated for 1 h. […] substrate (Thermo-Pierce) was used to visualize the amount of bound secondary antibody at 450 nm on a SpectraMax190 plate reader (Molecular Devices) using Softmax Pro software for data collection.
(§2) A, A schematic of different functional domains of human apoE. […] All experiments were performed in triplicate. Values are mean±SD. OD, optical density.

[2] = biological target: T2, N-terminal 22-kDa fragment of apoE4 (aa 1-191) (human, UniProt P02649 19-209); assay: ELISA on coated fragment
T2 construct: Range 1-191 is in apoE (299-residue) numbering
T2 chain: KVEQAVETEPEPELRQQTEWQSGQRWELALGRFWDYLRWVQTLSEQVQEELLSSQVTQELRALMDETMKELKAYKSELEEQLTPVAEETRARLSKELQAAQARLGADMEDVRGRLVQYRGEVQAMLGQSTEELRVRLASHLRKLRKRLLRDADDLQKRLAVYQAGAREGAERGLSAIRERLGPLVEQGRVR
Experimental: as §1, §2

apoE(1-260) = biological target: T3, apoE(1-260) (human, UniProt P02649 19-278); assay: western blot, transfected Neuro-2a cells
T3 construct: Expressed in transiently transfected Neuro-2a cells; also called apoE4(1-260)
Experimental: (§3) Cell culture, transfection, and western blotting. Mouse neuroblastoma (Neuro-2a) and astrocytic (C6) cells (American Type Culture Collection, Manassas, Va.) maintained at 37° C. in MEM containing 10% fetal bovine serum (FBS) were transiently transfected with different apoE cDNA constructs using Lipofectamine 2000 (Invitrogen) (Huang et al., 2001). Neuro-2a cells expressing different forms of apoE were collected in a low-detergent lysis buffer, separated by sodium dodecyl sulfate-polyacrylamide gel electrophoresis (SDS-PAGE), and immunoblotted for apoE with polyclonal and monoclonal antibodies, as described (Huang et al., 2001).

apoE(1-240) = biological target: T4, apoE(1-240) (human, UniProt P02649 19-258); assay: western blot, transfected Neuro-2a cells
T4 construct: If 1-244 is right the range is 19-262
Experimental: as §3

[3] = biological target: T5, green fluorescent protein-apoE(231-272) (human, UniProt P02649 249-290, not fully specified); assay: western blot, transfected Neuro-2a cells
T5 construct: Expressed in transiently transfected Neuro-2a cells; not shown: green fluorescent protein tag
T5 chain: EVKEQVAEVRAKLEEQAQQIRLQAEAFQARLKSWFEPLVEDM
Experimental: as §3

[4] = biological target: T6, recombinant human apolipoprotein E4, full length (human, UniProt P02649 19-317); assay: ELISA; apoE coated (50 ng/well), 3H1 as primary antibody
T6 construct: Recombinant protein in ELISA; expressed in transfected Neuro-2a or C6 cells for western blot and cell staining; also called apoE4; apoE4(1-299)
Experimental: Secondary antibodies against goat or mouse IgG labeled with horse radish peroxidase (HRP) diluted in blocking buffer were added to the wells after several washes and incubated for 1 h. […] substrate (Thermo-Pierce) was used to visualize the amount of bound secondary antibody at 450 nm on a SpectraMax190 plate reader (Molecular Devices) using Softmax Pro software for data collection.
as §2

[5] = biological target: T7, DMPC-lipidated apoE3 (DMPC:apoE=4:1) (human, UniProt P02649 19-317); assay: ELISA; lipid-free or DMPC-lipidated apoE coated (50 ng protein/well)
T7 construct: Same protein as m3, in complex with dimyristoyl phosphatidylcholine (not covalent)
Experimental: (§4) Preparation of apoE and DMPC complex. Dimyristoyl phosphatidylcholine (DMPC) (Avanti Polar Lipids, Alabaster, Ala.) was used at a concentration of 20 mg/ml dissolved into phosphate-buffered saline (PBS). DMPC solution was sonicated for 6 min per cycle until the solution became clear and centrifuged at 14,000 rpm for 2 min to pellet debris. ApoE was then added to obtain various final stock concentrations and allowed to incubate at 23.7° C. overnight before use in enzyme-linked immunosorbent assay (ELISA) experiments.
as §1
(§5) All experiments were performed in triplicate. Values are mean±SD. OD, optical density.

[6] = biological target: T8, DMPC-lipidated apoE4 (DMPC:apoE=4:1) (human, UniProt P02649 19-317); assay: as above
T8 construct: Same protein as m2, in complex with dimyristoyl phosphatidylcholine (not covalent)
Experimental: as §4, §1, §5

[7] = biological target: T6, recombinant human apolipoprotein E4, …; assay: inhibition ELISA; apoE preincubated with 3H1 IgG, added to Aβ1-42-coated wells
Experimental: ApoE and Aβ binding assay. Aβ₁₋₄₂ (Biopeptides) was used to coat the surface of a 96-well plate at 330 ng/well and ELISA was performed essentially as described above. […] Subsequent detection of apoE bound with Aβ was performed with polyclonal anti-apoE, as stated above.
FIGS. 6A and 6B. […] After washing, the binding of apoE to Aβ was detected with polyclonal anti-apoE in an ELISA. […] After incubation, the mixture was added to Aβ₁₋₄₂-coated wells, and the binding of apoE to Aβ was detected with polyclonal anti-apoE after washing. All experiments were performed in triplicate. Values are mean±SD. OD, optical density.

B1: apoE-specific monoclonal antibody 3H1 (antibody, V domains shown)
VH: EVQLVESGGGLVKPGGSLKLSCAASGFTFSSYAMSWVRQTPEKRLEWVATISSGGSYTYYPDSVKGRFTISRDNAKNTLYLQMSSLRSEDTAMYYCARQFYYYGGSYDYFDYWGQGTTLTVS
VL: DIVLTQSPATLSVTPGDSVSLACRASQSISNNLHWYQQKSHESPRLLIKYAYQSISGIPSRFSGSGSGTDFTLSINSVETEDFGMYFCQQSNSWPLTFGVGTKLEIKR
notes: Mouse monoclonal IgG (detected with anti-mouse IgG; used as purified 3H1 IgG); also called 3H1 IgG; purified 3H1 IgG
Q: Does B1 bind [1]?
A: Result: no binding

Q: Does B1 bind [2]?
A: Result: no binding

Q: Does B1 bind (apoE(1-260))?
A: Result: no binding

Q: Does B1 bind (apoE(1-240))?
A: Result: no binding

Q: Does B1 bind [3]?
A: Result: no binding

Q: And the “fold reactivity against apoE3” value [4]?
A: The value was 9 fold.

Q: What about the “fold increase of reactivity against lipid-free apoE3” value [5] of the same binder?
A: The value was about 120 fold.

Q: What about the “fold increase of reactivity against lipid-free apoE4” value [6] of the same binder?
A: Its value is about 20 fold.

Q: And the “percent lower IC50 than for apoE3” value [7]?
A: Its value is about 90%.
